The text below walks through data of the Immune Epitope Database (IEDB).

The target in one experiment is HLA-B*53:01. Kind of experiment: IEDB peptide-MHC binding, purified MHC/competitive/radioactivity; filed as Kd, often an IC50 or EC50 that approximates it; ≥ and ≤ were set here for values at or beyond the usual limits of such assays.
The next experiment addresses HLA-B*35:01. The experiment is described as above.
The target in a further experiment is HLA-B*54:01. The experiment is described as above.
The next experiment has as its target HLA-B*51:01. The experiment is described as above.
The target in experiment [1] is HLA-B*07:02. Described as above.
A further experiment concerns the target HLA-A*24:03. The experiment is described as follows: IEDB peptide-MHC binding, purified MHC/direct/fluorescence; filed as Kd, often an IC50 or EC50 that approximates it; ≥ and ≤ were set here for values at or beyond the usual limits of such assays.
Experiment [2] addresses HLA-B*08:01. The experiment is described as follows: IEDB peptide-MHC binding, purified MHC/competitive/radioactivity; filed as Kd, often an IC50 or EC50 that approximates it; ≥ and ≤ were set here for values at or beyond the usual limits of such assays. The settings on record: source organism: Hepatitis C virus (isolate H).
The next experiment deals with HLA-B*44:02. The experiment is described as follows: IEDB peptide-MHC binding, purified MHC/direct/fluorescence; filed as Kd, often an IC50 or EC50 that approximates it; ≥ and ≤ were set here for values at or beyond the usual limits of such assays.
Another experiment deals with HLA-B*18:01. The description is as above.
The target in another experiment is HLA-B*45:06. Kind of experiment: IEDB peptide-MHC binding, purified MHC/competitive/fluorescence; filed as Kd, often an IC50 or EC50 that approximates it; ≥ and ≤ were set here for values at or beyond the usual limits of such assays.
The target of another experiment is HLA-B*15:42. The description is as above.
The target of the next experiment is HLA-B*83:01. The description is as above.
The target in experiment [3] is HLA-B*08:01. The experiment is described as follows: IEDB peptide-MHC binding, purified MHC/direct/fluorescence; filed as Kd, often an IC50 or EC50 that approximates it; ≥ and ≤ were set here for values at or beyond the usual limits of such assays. The conditions noted are these: source organism: Campylobacter jejuni RM1221.
The target in the next experiment is HLA-A*31:01. The description is as above. The conditions noted are these: source organism: Campylobacter jejuni RM1221.
A further experiment deals with HLA-B*58:01. The experiment is described as above. The conditions noted are these: source organism: Campylobacter jejuni RM1221.
The next experiment has as its target HLA-A*02:01. The description is as above. The settings on record: source organism: Campylobacter jejuni RM1221.
The next experiment concerns the target HLA-B*40:01. Described as above.
A further experiment addresses HLA-A*69:01. Described as above. The settings on record: source organism: Campylobacter jejuni RM1221.
In a further experiment the target is HLA-A*01:01. Described as above. The settings on record: source organism: Campylobacter jejuni.
In another experiment the target is HLA-B*27:05. The description is as above. The settings on record: source organism: Campylobacter jejuni RM1221.
Another experiment deals with HLA-A*11:01. Described as above. The conditions noted are these: source organism: Campylobacter jejuni RM1221.
Another experiment deals with HLA-A*03:01. The description is as above. The conditions noted are these: source organism: Campylobacter jejuni RM1221.
The next experiment addresses HLA-B*15:01. Described as above. The conditions noted are these: source organism: Campylobacter jejuni RM1221.
Experiment [4] addresses HLA-B*07:02. The experiment is described as above. The conditions noted are these: source organism: Campylobacter jejuni RM1221.
Another experiment deals with HLA-A*26:01. The experiment is described as above. The settings on record: source organism: Campylobacter jejuni RM1221.
Where [5] appears, read: source organism: Triticum aestivum.
[6] abbreviates: source organism: SARS coronavirus Tor2.
The mark [7] stands for this setting: source organism: Mammarenavirus whitewaterense.
The mark [8] stands for this setting: source organism: Mammarenavirus tacaribeense.
Setting [9] is: source organism: Hepatitis C virus (isolate H).
Setting [10] is: source organism: Vaccinia virus WR.
[11] abbreviates: source organism: Mycobacterium tuberculosis H37Rv.
[12] abbreviates: source organism: human gammaherpesvirus 4.
[13] abbreviates: source organism: Dengue virus 1 Singapore/S275/1990.
[14] abbreviates: source organism: Campylobacter jejuni RM1221.
Setting [15] is: source organism: Influenza A virus (A/SW/MN/12883/00(H1N2)).
[16] abbreviates: source organism: Mycobacterium tuberculosis C.
[17] abbreviates: source organism: Human herpesvirus 4 strain B95-8.

In general, pKd refers to the Kd on a negative log10 scale, so that one unit is a factor of ten.

pKd: −log10 of the molar value.

Regarding QPFPPQQPY, the negative logarithm of the Kd (pKd) with HLA-B*53:01 (setting [5]) was not above 4.11; with HLA-B*35:01 (setting [5]), 6.52; with HLA-B*54:01 (setting [5]), not above 4.11; in the experiment with HLA-B*51:01 (setting [5]), not above 4.11; in the experiment with HLA-B*07:02 [1] (setting [5]), not above 4.11.

For LPYPDPSRIL, the pKd with HLA-B*53:01 (setting [6]) is 5.08; with HLA-B*35:01 (setting [6]), not above 4.57; with HLA-B*54:01 (setting [6]) it was 5.02; in the experiment with HLA-B*51:01 (setting [6]), 6.00; in the experiment with HLA-B*07:02 [1] (setting [6]) it was 5.42.

As to GPFEASWAI, the pKd with HLA-B*53:01 (setting [7]) was 6.60; with HLA-B*35:01 (setting [7]), 6.10; with HLA-B*54:01 (setting [7]), 6.51; with HLA-B*51:01 (setting [7]), 6.00; with HLA-B*07:02 [1] (setting [7]) it was 6.39.

Turning to VPYCNYTRFW, the pKd is 7.80 in the experiment with HLA-B*53:01 (setting [8]); 5.47 with HLA-B*35:01 (setting [8]); not above 4.65 in the experiment with HLA-B*54:01 (setting [8]); 5.99 with HLA-B*51:01 (setting [8]); 5.45 with HLA-B*07:02 [1] (setting [8]).

Take APVSAMVRM: the negative logarithm of the Kd (pKd) in the experiment with HLA-B*53:01 (setting [6]) is 6.13; in the experiment with HLA-B*35:01 (setting [6]) it was 6.36; in the experiment with HLA-B*54:01 (setting [6]), not above 4.63; with HLA-B*51:01 (setting [6]) it was 5.75; with HLA-B*07:02 [1] (setting [6]), 6.80.

For the sequence KHIKPIVEF, the pKd with HLA-A*24:03 (source organism: Entamoeba histolytica) is 7.15.

Regarding IPKGIMMNV, the negative logarithm of the Kd (pKd) with HLA-B*53:01 (setting [6]) is not above 4.62; in the experiment with HLA-B*35:01 (setting [6]), not above 4.68; with HLA-B*54:01 (setting [6]), 7.83; in the experiment with HLA-B*51:01 (setting [6]), 5.08; with HLA-B*07:02 [1] (setting [6]) it was 6.89.

For the sequence HPALVFDIT, the pKd is 6.01 in the experiment with HLA-B*08:01 [2]; 6.19 with HLA-B*53:01 (setting [9]); 8.25 in the experiment with HLA-B*35:01 (setting [9]); 9.55 in the experiment with HLA-B*54:01 (setting [9]); 5.15 in the experiment with HLA-B*51:01 (setting [9]).

For the sequence MPYNILDRII, the pKd was 7.34 with HLA-B*53:01 (setting [10]); 5.79 in the experiment with HLA-B*35:01 (setting [10]); 8.08 in the experiment with HLA-B*54:01 (setting [10]); 6.91 with HLA-B*51:01 (setting [10]); 6.58 with HLA-B*07:02 [1] (setting [10]).

On to GEDGCWYGM, for which the values for the pKd with HLA-B*44:02 (source organism: Dengue virus) and with HLA-B*18:01 (source organism: Dengue virus) were not above 4.70 and 5.90, respectively.

As for SPAAYVLPL, the pKd is not above 5.30 with HLA-B*45:06 (setting [11]), not above 5.30 with HLA-B*15:42 (setting [11]) and 6.81 with HLA-B*83:01 (setting [11]).

For the sequence PYIDAADQF, in the experiment with HLA-A*24:03 (source organism: Mycobacterium tuberculosis), the pKd was 7.04.

Turning to VPRPRFSAL, the pKd with HLA-B*45:06 (setting [12]) is not above 4.70; in the experiment with HLA-B*15:42 (setting [12]), not above 5.30; in the experiment with HLA-B*83:01 (setting [12]), 6.97.

Consider MPEKRNVVV, for which the pKd with HLA-B*53:01 (setting [10]) is 6.40; with HLA-B*35:01 (setting [10]) it was 6.39; with HLA-B*54:01 (setting [10]) it was 7.48; with HLA-B*51:01 (setting [10]) it was 6.90; in the experiment with HLA-B*07:02 [1] (setting [10]), 8.74.

For IPCMDVVL, the pKd in the experiment with HLA-B*53:01 (setting [5]) is not above 4.39; with HLA-B*35:01 (setting [5]) it was 4.79; with HLA-B*54:01 (setting [5]), not above 4.06; with HLA-B*51:01 (setting [5]) it was 5.89; with HLA-B*07:02 [1] (setting [5]), not above 4.39.

Consider YPQPQPQY, for which the pKd in the experiment with HLA-B*53:01 (setting [5]) was 5.27; with HLA-B*35:01 (setting [5]), 6.33; with HLA-B*54:01 (setting [5]), not above 4.15; in the experiment with HLA-B*51:01 (setting [5]), 4.71; with HLA-B*07:02 [1] (setting [5]) it was not above 4.06.

On to SEHTGKEIV, for which the pKd with HLA-B*44:02 (setting [13]) was not above 4.70; with HLA-B*18:01 (setting [13]), 5.51.

Take KNDAVYIGY: the pKd with HLA-B*08:01 [3], in the experiment with HLA-A*31:01, in the experiment with HLA-B*58:01, in the experiment with HLA-A*02:01, in the experiment with HLA-B*40:01 (setting [14]) and in the experiment with HLA-A*69:01 was not above 4.70 throughout. In addition, the negative-log Kd (pKd) is 4.72 in the experiment with HLA-A*01:01; not above 4.70 with HLA-B*44:02 (setting [14]); not above 4.70 with HLA-B*27:05; not above 4.70 with HLA-A*24:03 (setting [14]); not above 4.70 in the experiment with HLA-A*11:01; not above 4.70 in the experiment with HLA-A*03:01. The pKd in the experiment with HLA-B*15:01, with HLA-B*07:02 [4] and in the experiment with HLA-A*26:01 was not above 4.70 throughout.

Take FPLKLRGTAV: the pKd with HLA-B*53:01 (setting [6]) is 5.35; in the experiment with HLA-B*35:01 (setting [6]), 5.34; in the experiment with HLA-B*54:01 (setting [6]) it was 8.97; in the experiment with HLA-B*51:01 (setting [6]) it was 6.18; with HLA-B*07:02 [1] (setting [6]), 6.87.

On to NEVGARILT, for which the pKd with HLA-B*40:01 (setting [15]) is not above 4.70; with HLA-B*44:02 (setting [15]), not above 4.70; with HLA-B*18:01 (setting [15]) it was 6.18.

Turning to TPNNLNKIQL, the pKd in the experiment with HLA-B*53:01 (setting [10]) was 5.53; in the experiment with HLA-B*35:01 (setting [10]), 5.35; with HLA-B*54:01 (setting [10]) it was 4.87; with HLA-B*51:01 (setting [10]), not above 4.16; with HLA-B*07:02 [1] (setting [10]) it was 7.19.

For the sequence DPEKFNARM, the pKd with HLA-B*53:01 (setting [10]) is 5.89; with HLA-B*35:01 (setting [10]), 6.02; in the experiment with HLA-B*54:01 (setting [10]), not above 4.11; in the experiment with HLA-B*51:01 (setting [10]) it was 4.77; with HLA-B*07:02 [1] (setting [10]) it was not above 4.18.

As for KPTESACSSL, the pKd with HLA-B*53:01 (setting [6]) was 5.08; with HLA-B*35:01 (setting [6]), 4.78; with HLA-B*54:01 (setting [6]), not above 4.30; with HLA-B*51:01 (setting [6]) it was 5.37; in the experiment with HLA-B*07:02 [1] (setting [6]), 7.23.

As for SVMAIFYLR, the pKd in the experiment with HLA-B*45:06 (setting [16]), with HLA-B*15:42 (setting [16]) and with HLA-B*83:01 (setting [16]) was not above 5.30 each time.

Turning to CSDAFYPFY, the pKd in the experiment with HLA-B*45:06 (setting [17]), with HLA-B*15:42 (setting [17]) and with HLA-B*83:01 (setting [17]) was not above 5.30 throughout.
